Laboratory results taken from paper PMC13186708.

Target: Alistipes sp. Cas12f (Al3Cas12f), wild type (Alistipes sp.)
Test: SEC; apo Al3Cas12f without gRNA on an S200i 10/300 GL column; 50 mM Tris-HCl pH 7.5, 250 mM NaCl, 10 mM MgCl2, 0.5 mM EDTA, 5% glycerol, 0.5 mM TCEP; peak at about 11.5 mL, near the 158 kDa standard

Alistipes sp. Cas12f (Al3Cas12f), wild type (enzyme)
stoichiometry N: 2
